According to patent publication US20230340055A1 (published 2023):

Target: T1, Human IL-2 Receptor alpha, Fc-Tag (Symansis, New Zealand) (human, UniProt P01589 22-240)
T1 construct: extracellular domain; Bought reagent; also called IL-2Rα; IL-2Rα-Fc; not shown: Fc-Tag (captured by anti-human IgG (Fc) antibody)
T1 sequence (looked up): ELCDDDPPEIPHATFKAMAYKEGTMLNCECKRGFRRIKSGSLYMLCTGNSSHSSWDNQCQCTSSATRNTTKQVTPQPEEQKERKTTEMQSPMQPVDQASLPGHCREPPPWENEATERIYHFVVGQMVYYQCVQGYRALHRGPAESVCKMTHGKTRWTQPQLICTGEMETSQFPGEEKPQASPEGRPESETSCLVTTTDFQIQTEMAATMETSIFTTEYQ
Assay: SPR; KD to IL-2Rα divided by KD to IL-2Rβ of the same compound
Description: (§1) For the determination of binding kinetics to IL-2Rα the following chip preparation was used: Human IL-2 Receptor alpha, Fc-Tag (Symansis, New Zealand) was diluted in HBS-EP running buffer (GE Healthcare, 10 mM HEPES, 150 mM NaCl, 3 mM EDTA, 0.05% Surfactant P20, pH 7.4) to approx. 0.25 µg/mL and immobilized at a flow rate of 50 µL/min for 60 s to achieve 90 - 110 response units (RU).
as §1, with “IL-2Rβ” for “IL-2Rα”, “beta,” for “alpha,”, “around” for “approx.”, “300” for “90”, “330” for “110”
(50 µL/min flow rate, 60 s contact time, 300 s dissociation time). Double referenced data (subtracted data from the reference flow cell and the buffer only samples) was analysed via a kinetic fit (1:1 binding model) to determine KD, kₐ and kd. Regeneration after each cycle was performed with 3 M MgCl₂.

- KD-Ratio (α/β): > 2.7
B1: protein 6 (ligand)
chain: APTSSSTKKTQLQLEHLLLDLQMILNGINNYKNPKLTFGNSTKFYMPKKATELKHLQCLEEELKPLEEVLNLAQSKNFHLRPRDLISNINVIVLELKGSETTFMCEYADETATIVEFLNRWITFSQSIISTLT
modifications: glycosylated (same sequence with the N-glycosylation motif FGNST as protein 1f); glycan sites not analysed separately for protein 6
